Measured values: patent US6455049B1, “Biologically active and particularly peptide molecules having a potentiating effect on growth hormone biological activity” (priority 1996, dated 2002)

Test system: IGF-1
Assay: Plasma IGF-1 level in hypophysectomised female Wistar rats (radioimmunoassay)
Assay type: in vivo
Details: dose of 100 μg/rat
Experimental: In vivo experiments performed in the context of the present invention were carried out on 19 batches of hypophysectomised female rats of the Wistar strain, each batch comprising 5 rats. These animals were hypophysectomized when 4 weeks old and then kept under observation for one week. During an additional week of observation, the animals were weighed and those having gained more than 5 grams […] were discarded. In fact, it was assumed that the hypophysectomy of these animals was incomplete. They are thus not suitable for use in the framework of the present experiments.
Each animal selected receives a T4 thyroid hormone and cortisone replacement treatment. These hormones are administered subcutaneously each day at 50 μg/100 g body weight in the case of cortisone and 1 μg/100 g body weight in the case of T4. Usually a slight weight gain is observed following the injection of these hormones. This hormone supplementation treatment is administered for one week during which the animals continue to be weighed daily. These animals are from then on suitable for use in a comparative evaluation of the somatogenic activity of bGH incubated with or without different peptide constructions having the sequence 104-113 or the sequence 35-53 in the case of the GH peptide described in EP 284406. […]

B1: bovine growth hormone (protein)
chain: AFPAMSLSGLFANAVLRAQHLHQLAADTFKEFERTYIPEGQRYSIQNTQVAFCFSETIPAPTGKNEAQQKSDLELLRISLLLIQSWLGPLQFLSRVFTNSLVFGTSDRVYEKLKDLEEGILALMRELEDGTPRAGQILKQTYDKFDTNMRSDDALLKNYGLLSCFRKDLHKTETYLRVMKCRRFGEASCAF
IGF level relative to baseline levels in control hypophysectomized animals: eight times higher than the baseline levels
mean IGF levels (hypophysectomized rats): 60 ng/mL
